Measured values as given in publication PMC8203837, “Optogenetically-induced multimerization of the dopamine transporter increases uptake and trafficking to the plasma membrane” (The Journal of Biological Chemistry, 2021).

B1: YFP–DAT (dopamine transporter with N-terminal YFP) (natural protein, UniProt Q01959 1-620, looked up)
chain: MSKSKCSVGLMSSVVAPAKEPNAVGPKEVELILVKEQNGVQLTSSTLTNPRQSPVEAQDRETWGKKIDFLLSVIGFAVDLANVWRFPYLCYKNGGGAFLVPYLLFMVIAGMPLFYMELALGQFNREGAAGVWKICPILKGVGFTVILISLYVGFFYNVIIAWALHYLFSSFTTELPWIHCNNSWNSPNCSDAHPGDSSGDSSGLNDTFGTTPAAEYFERGVLHLHQSHGIDDLGPPRWQLTACLVLVIVLLYFSLWKGVKTSGKVVWITATMPYVVLTALLLRGVTLPGAIDGIRAYLSVDFYRLCEASVWIDAATQVCFSLGVGFGVLIAFSSYNKFTNNCYRDAIVTTSINSLTSFSSGFVVFSFLGYMAQKHSVPIGDVAKDGPGLIFIIYPEAIATLPLSSAWAVVFFIMLLTLGIDSAMGGMESVITGLIDEFQLLHRHRELFTLFIVLATFLLSLFCVTNGGIYVFTLLDHFAAGTSILFGVLIEAIGVAWFYGVGQFSDDIQQMTGQRPSLYWRLCWKLVSPCFLLFVVVVSIVTFRPPHYGAYIFPDWANALGWVIATSSMAMVPIYAAYKFCSLPGSFREKLAYAIAPEKDRELVDRGEVRQFTLRHWLKV
notes: dopamine transporter (DAT); also called YFPsynDAT; source: HEK293 cells stably expressing YFP–DAT, in or on cells; not shown: YFP, N-terminal, kept

Legend:
[1] = molecular target: Cry2–mCh–DAT, optogenetic fusion chimera of cryptochrome 2 and DAT with an mCherry fluorescent reporter (Arabidopsis | not stated) (UniProt Q01959); experiment: cell-surface biotinylation, SDS-PAGE and Western blot; HEK293 cells transfected with Cry2–DAT, kept in the dark (control); sulfo-NHS-SS-biotin at 4 °C, NeutrAvidin beads, 4–15% gradient gel
[2] = molecular target: Cry2–mCh–DAT, optogenetic fusion chimera of cryptochrome 2 and DAT with an mCherry fluorescent reporter (Arabidopsis | not stated) (UniProt Q01959)
[3] = molecular target: the molecule itself; experiment: cross-linking; as a1, but cells treated with 10 μM DA for 0.5, 2, 10, 30 or 60 min before copper phenanthroline cross-linking
[4] = molecular target: the molecule itself; experiment: cross-linking; as a1, but cells treated with 10 μM METH for 0.5, 2, 10, 30 or 60 min before copper phenanthroline cross-linking
[5] = molecular target: the molecule itself; experiment: cross-linking; HEK293 cells stably expressing YFP–DAT, vehicle control; copper phenanthroline (100 μM CuSO4, 400 μM 1,10-phenanthroline) in PBS 10 min at RT, NEM quench, membrane enrichment (Mem-PER Plus), samples not heated, Western blot

Molecule	stoichiometry N [1]	IDT307 uptake in differentiated SH-SY5Y cells expressing Cry2–DAT, blue light against no blue light [2]	stoichiometry N [3]	stoichiometry N [4]	stoichiometry N [5]
Cry2–mCh–DAT, optogenetic fusion chimera of cryptochrome 2 and DAT with an mCherry fluorescent reporter (from UniProt Q01959 1-620)	2	2.5 fold			
B1			4	3	2
